This note sets out measurements from US20170360911A1 (SAPPORO MEDICAL UNIVERSITY, published 2017).

The chains are these.
B1: As271_10 (peptide)
peptide: MLEAGAEANL
notes: read as 39 from its place between 38 and 40

One test has as its target T1, HLA-A*02:01 (human).
T1 construct: whole, on cells; Empty class I molecule on TAP-deficient T2-A24 cells; detected with anti-HLA-A02 antibody BB7.2
Nature of the test: T2-A24 MHC class I stabilization, flow cytometry, anti-HLA-A02 BB7.2-FITC, peptide 100 ug/mL. (Flow cytometry measures light scatter and fluorescence of single cells or particles in a stream.)
For KYWDFYHSLFTV [As365_12], the “MFI (solvent ratio)” value is 1 ratio to solvent.

As for CYSLSGHTAL [As135_10], the “MFI (solvent ratio)” value is 1.6 ratio to solvent.

As to QIDVDTVFEV (41-50 follows from start and length) [As41_10], the “MFI (solvent ratio)” value is 1.2 ratio to solvent.

For VLFGHVECLL [As83_10], the “MFI (solvent ratio)” value is 3.6 ratio to solvent.

For KLVKRNFLEAL [As15_11], the “MFI (solvent ratio)” value was 1 ratio to solvent.

With ILCDRGAKL [As125_9], the “MFI (solvent ratio)” value is 1.9 ratio to solvent.

On to CYQLLLNHGA [As307_10], for which the “MFI (solvent ratio)” value was 2.5 ratio to solvent.

Regarding DFYHSLFTV [As368_9], the “MFI (solvent ratio)” value is 1 ratio to solvent.

On to SVLFGHVECL [As82_10], for which the “MFI (solvent ratio)” value was 3.3 ratio to solvent.

On to HLSVLFGHV [As80_9], for which the “MFI (solvent ratio)” value was 1.6 ratio to solvent.

As for FEVEDENMVL [As48_10], the “MFI (solvent ratio)” value is 1 ratio to solvent.

For the molecule RMLLDYKAEV [As236_10], the “MFI (solvent ratio)” value was 3.3 ratio to solvent.

For the molecule HVLMHMMLEA [As265_10], the “MFI (solvent ratio)” value is 2 ratio to solvent.

In the case of AIPLLSLPL [As403_9], the “MFI (solvent ratio)” value was 0.9 ratio to solvent.

For SILCAKQLV [As152_9], the “MFI (solvent ratio)” value was 1.8 ratio to solvent.

Turning to HVECLLVLL [As87_9], the “MFI (solvent ratio)” value was 1.5 ratio to solvent.

Turning to QYVLKVTSV [As290_9], the “MFI (solvent ratio)” value is 1 ratio to solvent.

As to PLAIAAYWAL [As211_10], the “MFI (solvent ratio)” value is 1.1 ratio to solvent.

As to B1, the “MFI (solvent ratio)” value is 1 ratio to solvent.

For AILIQRQIDV [As35_10], the “MFI (solvent ratio)” value was 3.4 ratio to solvent.

Regarding HFGLSELVAFYV [As184_12], the “MFI (solvent ratio)” value is 3.1 ratio to solvent.

In the case of TLMHLSRCAI [As383_10_5L], the “MFI (solvent ratio)” value was 2.4 ratio to solvent.

For the molecule LMDINGCAAI [As280_10], the “MFI (solvent ratio)” value is 3.1 ratio to solvent.

Consider KYWDFYHSL [As365_9], for which the “MFI (solvent ratio)” value is 1.1 ratio to solvent.

As to KILCDRGAKL [As124_10], the “MFI (solvent ratio)” value was 1.6 ratio to solvent.

In the case of ATGLHLSVLF [As76_10], the “MFI (solvent ratio)” value is 0.9 ratio to solvent.

Turning to IYPPQFHKV (also called ASB4 peptide) [IV9], the “MFI (solvent ratio)” value was 0.9 ratio to solvent.

As for AAQPEICYQLL [As301_11], the “MFI (solvent ratio)” value is 2.6 ratio to solvent.

For VVVNAYEHI [As340_9], the “MFI (solvent ratio)” value was 0.9 ratio to solvent.

Regarding GLSELVAFYV [As186_10], the “MFI (solvent ratio)” value was 2.6 ratio to solvent.

In the case of LLNHGAARI [As311_9], the “MFI (solvent ratio)” value is 0.9 ratio to solvent.

HFCTTPSSIL [As145_10]: the “MFI (solvent ratio)” value was 1 ratio to solvent.

On to SLPLSLKKYL [As408_10], for which the “MFI (solvent ratio)” value was 1 ratio to solvent.

Consider GYWLPSYKL [As63_9], for which the “MFI (solvent ratio)” value was 1.1 ratio to solvent.

KLKSSWATGL [As70_10]: the “MFI (solvent ratio)” value is 1.1 ratio to solvent.

Turning to PLLSLPLSL [As405_9], the “MFI (solvent ratio)” value is 2.2 ratio to solvent.

Consider AFYVEHGAIF [As192_10], for which the “MFI (solvent ratio)” value was 1.1 ratio to solvent.

On to KQLVWRGANV [As157_10], for which the “MFI (solvent ratio)” value was 1.2 ratio to solvent.

Consider LVLLDHNATI [As92_10], for which the “MFI (solvent ratio)” value is 2.6 ratio to solvent.

Take YLLLEPEGII [As416_10]: the “MFI (solvent ratio)” value is 2.8 ratio to solvent.

With IQYVLKVTSV [As289_10], the “MFI (solvent ratio)” value was 1.2 ratio to solvent.

Regarding DFGKLKAIL [As29_9], the “MFI (solvent ratio)” value is 1 ratio to solvent.

Another test concerns the target T2, HLA-A*24:02 (human).
T2 construct: whole, on cells; Empty class I molecule on T2-A24 cells
The test is described as follows: T2-A24 MHC class I stabilization, flow cytometry, anti-HLA-A24 17A10-FITC, peptide 100 ug/mL.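 Also: peptide exposure stabilizes otherwise empty class I molecules on T2 cell surfaces, so surface class I level reflects how strongly the peptide binds.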
Experimental: T2 cells can usually only express a low level of empty MHC class I molecules on the cell surface. However, when a peptide that can bind to the MHC class I molecule is added, the empty MHC class I molecule binds to the peptide and can be present on the cell surface in a stable manner. Therefore, the cell surface MHC class I expression level depends on the MHC class I binding affinity of a peptide.
The T2-A24 cells were subcultured at 37° C. under 5% CO₂. […] These peptides were dissolved in DMSO and further diluted by 200 times with RPMI 160 medium. A cell suspension and the peptide solution were mixed and cultured under conditions of 5% CO₂ and 26° C. for 16 to 18 hours. Co-culturing was carried out at a temperature of 37° C. for a further 3 hours, the supernatant was then removed by centrifuging, and cells were isolated. […] Subsequently, the cells were washed with 3% FBS-containing PBS, 4% paraformaldehyde phosphate buffer was added, and the mixture was allowed to stand at room temperature for 10 minutes to thus fix the cells. The fixed cells were subjected to measurement of FITC fluorescence intensity by a flow cytometer (FACScan). The mean fluorescence intensity (MFI) was calculated as a solvent ratio.
Consider KYWDFYHSLFTV [As365_12], for which the “MFI (solvent ratio)” value is 2.4 ratio to solvent.

With CYSLSGHTAL [As135_10], the “MFI (solvent ratio)” value is 2.4 ratio to solvent.

As for QIDVDTVFEV (41-50 follows from start and length) [As41_10], the “MFI (solvent ratio)” value is 1.1 ratio to solvent.

Consider VLFGHVECLL [As83_10], for which the “MFI (solvent ratio)” value was 2.8 ratio to solvent.

Take KLVKRNFLEAL [As15_11]: the “MFI (solvent ratio)” value is 1 ratio to solvent.

With ILCDRGAKL [As125_9], the “MFI (solvent ratio)” value is 1.8 ratio to solvent.

On to CYQLLLNHGA [As307_10], for which the “MFI (solvent ratio)” value was 1.9 ratio to solvent.

On to DFYHSLFTV [As368_9], for which the “MFI (solvent ratio)” value is 1.1 ratio to solvent.

As to SVLFGHVECL [As82_10], the “MFI (solvent ratio)” value was 2.7 ratio to solvent.

HLSVLFGHV [As80_9]: the “MFI (solvent ratio)” value was 2.1 ratio to solvent.

Take RMLLDYKAEV [As236_10]: the “MFI (solvent ratio)” value is 1 ratio to solvent.

On to AIPLLSLPL [As403_9], for which the “MFI (solvent ratio)” value was 1.1 ratio to solvent.

For the molecule HVECLLVLL [As87_9], the “MFI (solvent ratio)” value was 1.6 ratio to solvent.

With PLAIAAYWAL [As211_10], the “MFI (solvent ratio)” value is 2.1 ratio to solvent.

In the case of B1, the “MFI (solvent ratio)” value is 1.2 ratio to solvent.

For the molecule AILIQRQIDV [As35_10], the “MFI (solvent ratio)” value is 1.1 ratio to solvent.

For HFGLSELVAFYV [As184_12], the “MFI (solvent ratio)” value is 3.2 ratio to solvent.

Regarding RIYPPQFHKV [As318_10], the “MFI (solvent ratio)” value is 3.6 ratio to solvent.

On to TLMHLSRCAI [As383_10_5L], for which the “MFI (solvent ratio)” value was 1 ratio to solvent.

On to LMDINGCAAI [As280_10], for which the “MFI (solvent ratio)” value is 1.2 ratio to solvent.

KYWDFYHSL [As365_9]: the “MFI (solvent ratio)” value was 2.5 ratio to solvent.

For KILCDRGAKL [As124_10], the “MFI (solvent ratio)” value was 2.2 ratio to solvent.

For ATGLHLSVLF [As76_10], the “MFI (solvent ratio)” value is 2.1 ratio to solvent.

On to IYPPQFHKV (also called ASB4 peptide) [IV9], for which the “MFI (solvent ratio)” value is 3.3 ratio to solvent.

For AAQPEICYQLL [As301_11], the “MFI (solvent ratio)” value was 2 ratio to solvent.

As for VVVNAYEHI [As340_9], the “MFI (solvent ratio)” value was 1 ratio to solvent.

Regarding GLSELVAFYV [As186_10], the “MFI (solvent ratio)” value is 1.1 ratio to solvent.

As for LLNHGAARI [As311_9], the “MFI (solvent ratio)” value is 0.9 ratio to solvent.

For the molecule HFCTTPSSIL [As145_10], the “MFI (solvent ratio)” value is 1.2 ratio to solvent.

Consider SLPLSLKKYL [As408_10], for which the “MFI (solvent ratio)” value is 1 ratio to solvent.

As for GYWLPSYKL [As63_9], the “MFI (solvent ratio)” value is 1.2 ratio to solvent.

With LLLNHGAARI [As310_10], the “MFI (solvent ratio)” value is 1.2 ratio to solvent.

Regarding KLKSSWATGL [As70_10], the “MFI (solvent ratio)” value was 1 ratio to solvent.

Consider PLLSLPLSL [As405_9], for which the “MFI (solvent ratio)” value is 2.8 ratio to solvent.

On to AFYVEHGAIF [As192_10], for which the “MFI (solvent ratio)” value is 2.2 ratio to solvent.

With KQLVWRGANV [As157_10], the “MFI (solvent ratio)” value was 1 ratio to solvent.

Consider LVLLDHNATI [As92_10], for which the “MFI (solvent ratio)” value is 1.1 ratio to solvent.

Regarding IQYVLKVTSV [As289_10], the “MFI (solvent ratio)” value is 1.5 ratio to solvent.

For DFGKLKAIL [As29_9], the “MFI (solvent ratio)” value is 1 ratio to solvent.
